The text below walks through data of publication doi:10.1101/2023.08.20.554024, “Structural framework for the understanding spectroscopic and functional signatures of the cyanobacterial Orange Carotenoid Protein families” (bioRxiv, 2023).

Experiment [1] concerns the target T1, ΔNTE-SynOCP1(ECH) (Synechocystis sp. PCC 6803, UniProt P74102 13-317).
T1 construct: Orange Carotenoid Protein (OCP1), Synechocystis sp; PCC 6803, Uniprot P74102, lacking residues Met1-Phe12 (the N-terminal extension); also called ΔNTE mutant of SynOCP1; ΔNTE-SynOCP1 holoform; source: obtained earlier [24]
T1 sequence (looked up): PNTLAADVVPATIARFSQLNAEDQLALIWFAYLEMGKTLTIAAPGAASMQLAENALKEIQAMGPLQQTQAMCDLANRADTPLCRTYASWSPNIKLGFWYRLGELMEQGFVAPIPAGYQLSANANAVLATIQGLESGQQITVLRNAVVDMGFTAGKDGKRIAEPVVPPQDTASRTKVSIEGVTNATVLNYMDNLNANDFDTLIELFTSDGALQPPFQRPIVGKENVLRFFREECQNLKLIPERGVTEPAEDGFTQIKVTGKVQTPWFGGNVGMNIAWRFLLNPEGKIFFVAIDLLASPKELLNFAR
The experiment is described as follows: SEC; 10 μM OCP and 20 μM FRP pre-incubated in SEC buffer (20 mM Tris-HCl pH 7.6, 150 mM NaCl) for 15 min at room temperature; Superdex 200 Increase 5/150, 0.45 ml/min; profiles at 280 or 460 (or 500) nm, compared with algebraic sums of the single profiles. The following applies: both partners purified. (In general: SEC sorts molecules by how far they enter the pores of the column.)

The target of experiment [2] is GcapOCP2(ECH) (Gloeocapsa sp. PCC 7428). Kind of experiment: cell-based or functional assay.

B1: Fluorescence Recovery Protein from Synechocystis sp. PCC 6803 (natural protein, UniProt P74103 1-109, looked up)
chain: MLQTAEAPWSQAETQSAHALFRKAYQRELDGLLATVQAQASQITQIDDLWKLHDFLSAKRHEIDGKYDDRQSVIIFVFAQLLKEGLVQAEELTFLAADKQSKIKALARL
notes: Fluorescence Recovery Protein (FRP), Synechocystis sp; PCC 6803, Uniprot P74103; also called SynFRP; FRP; source: obtained in previous works [24,30] as electrophoretically homogeneous preparation devoid of tags
As for B1, in experiment [1], the binding result was “binds”. Moreover, the “τ1/2 of the R-O transition of GcapOCP2 (OD550 after switching off blue LED) with a two-fold molar excess of SynFRP, 5-23 °C (203 to 250 s at 5°C, 12 to 16 s at 20°C)” value in experiment [2] is 250 s.
